Results: PMC3605642 (The Journal of Biological Chemistry, 2013)
Residue numbers refer to the chain shown, from its start. Numbers in names are those of the source. Like-named read-outs stand apart in the source and are kept apart here. Blank lines part the entries; values can stand above or below the molecule they belong to.

T1: vinculin domain 1 (Vd1; residues 1–258) (chicken, UniProt P12003 1-258)
T1 sequence (looked up): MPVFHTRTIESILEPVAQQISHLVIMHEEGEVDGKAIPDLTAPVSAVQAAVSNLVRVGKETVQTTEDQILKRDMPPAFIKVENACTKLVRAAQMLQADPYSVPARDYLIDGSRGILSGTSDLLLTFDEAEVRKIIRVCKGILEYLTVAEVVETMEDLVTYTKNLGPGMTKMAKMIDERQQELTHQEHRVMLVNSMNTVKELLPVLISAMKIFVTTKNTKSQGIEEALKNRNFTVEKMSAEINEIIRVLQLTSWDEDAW

B1: RIAM(1–127) (TBS1-TBS2) (domain or fragment)
chain: MGESNEDIDQMFSTLLGEMDLLTQSLGVDTLPPPDPNPPREEFNYTVGFKDLNESLNALEDQDLDALMADLVADISEAEQRTIQAQKESSQNQDRFALLRASDGQGTASGGYGASAAAIDVSHHEEA
B2: talin R3 rod domain (residues 787–911) (domain or fragment, mouse, UniProt P26039 787-911, looked up)
chain: AHATGAGPAGRYDQATDTILTVTENIFSSMGDAGEMVRQARILAQATSDLVNAIKADAEGESDLENSRKLLSAAKILADATAKMVEAAKGAAAHPDSEEQQQRLREAAEGLRMATNAAAQNAIKK
B3: talin R3 IVVI mutant (T809I/T833V/T867V/T901I) (domain or fragment, mouse, UniProt P26039 787-911, looked up)
chain: B2 chain with T23I, T47V, T81V, T115I

Columns and labels:
[1] = target: vinculin domain 1 (Vd1; residues 1–258) (chicken) (UniProt P12003); assay: SEC-MALS
[2] = target: talin R2R3 double domain fragment (mouse); assay: ITC
[3] = target: talin R2R3 double domain fragment (mouse); assay: SEC-MALS
[4] = target: T1, vinculin domain 1 (Vd1; residues 1–258); assay: ITC
[5] = target: B2; assay: NMR titration
[6] = target: B3; assay: NMR titration
[7] = target: T1, vinculin domain 1 (Vd1; residues 1–258); assay: SEC
[8] = target: T1, vinculin domain 1 (Vd1; residues 1–258); assay: SEC; remark: listed apart in the source
[9] = target: B2; assay: ITC

Sequence of talin R2R3 double domain fragment (mouse) (P26039 whole entry, the tested form may be a part): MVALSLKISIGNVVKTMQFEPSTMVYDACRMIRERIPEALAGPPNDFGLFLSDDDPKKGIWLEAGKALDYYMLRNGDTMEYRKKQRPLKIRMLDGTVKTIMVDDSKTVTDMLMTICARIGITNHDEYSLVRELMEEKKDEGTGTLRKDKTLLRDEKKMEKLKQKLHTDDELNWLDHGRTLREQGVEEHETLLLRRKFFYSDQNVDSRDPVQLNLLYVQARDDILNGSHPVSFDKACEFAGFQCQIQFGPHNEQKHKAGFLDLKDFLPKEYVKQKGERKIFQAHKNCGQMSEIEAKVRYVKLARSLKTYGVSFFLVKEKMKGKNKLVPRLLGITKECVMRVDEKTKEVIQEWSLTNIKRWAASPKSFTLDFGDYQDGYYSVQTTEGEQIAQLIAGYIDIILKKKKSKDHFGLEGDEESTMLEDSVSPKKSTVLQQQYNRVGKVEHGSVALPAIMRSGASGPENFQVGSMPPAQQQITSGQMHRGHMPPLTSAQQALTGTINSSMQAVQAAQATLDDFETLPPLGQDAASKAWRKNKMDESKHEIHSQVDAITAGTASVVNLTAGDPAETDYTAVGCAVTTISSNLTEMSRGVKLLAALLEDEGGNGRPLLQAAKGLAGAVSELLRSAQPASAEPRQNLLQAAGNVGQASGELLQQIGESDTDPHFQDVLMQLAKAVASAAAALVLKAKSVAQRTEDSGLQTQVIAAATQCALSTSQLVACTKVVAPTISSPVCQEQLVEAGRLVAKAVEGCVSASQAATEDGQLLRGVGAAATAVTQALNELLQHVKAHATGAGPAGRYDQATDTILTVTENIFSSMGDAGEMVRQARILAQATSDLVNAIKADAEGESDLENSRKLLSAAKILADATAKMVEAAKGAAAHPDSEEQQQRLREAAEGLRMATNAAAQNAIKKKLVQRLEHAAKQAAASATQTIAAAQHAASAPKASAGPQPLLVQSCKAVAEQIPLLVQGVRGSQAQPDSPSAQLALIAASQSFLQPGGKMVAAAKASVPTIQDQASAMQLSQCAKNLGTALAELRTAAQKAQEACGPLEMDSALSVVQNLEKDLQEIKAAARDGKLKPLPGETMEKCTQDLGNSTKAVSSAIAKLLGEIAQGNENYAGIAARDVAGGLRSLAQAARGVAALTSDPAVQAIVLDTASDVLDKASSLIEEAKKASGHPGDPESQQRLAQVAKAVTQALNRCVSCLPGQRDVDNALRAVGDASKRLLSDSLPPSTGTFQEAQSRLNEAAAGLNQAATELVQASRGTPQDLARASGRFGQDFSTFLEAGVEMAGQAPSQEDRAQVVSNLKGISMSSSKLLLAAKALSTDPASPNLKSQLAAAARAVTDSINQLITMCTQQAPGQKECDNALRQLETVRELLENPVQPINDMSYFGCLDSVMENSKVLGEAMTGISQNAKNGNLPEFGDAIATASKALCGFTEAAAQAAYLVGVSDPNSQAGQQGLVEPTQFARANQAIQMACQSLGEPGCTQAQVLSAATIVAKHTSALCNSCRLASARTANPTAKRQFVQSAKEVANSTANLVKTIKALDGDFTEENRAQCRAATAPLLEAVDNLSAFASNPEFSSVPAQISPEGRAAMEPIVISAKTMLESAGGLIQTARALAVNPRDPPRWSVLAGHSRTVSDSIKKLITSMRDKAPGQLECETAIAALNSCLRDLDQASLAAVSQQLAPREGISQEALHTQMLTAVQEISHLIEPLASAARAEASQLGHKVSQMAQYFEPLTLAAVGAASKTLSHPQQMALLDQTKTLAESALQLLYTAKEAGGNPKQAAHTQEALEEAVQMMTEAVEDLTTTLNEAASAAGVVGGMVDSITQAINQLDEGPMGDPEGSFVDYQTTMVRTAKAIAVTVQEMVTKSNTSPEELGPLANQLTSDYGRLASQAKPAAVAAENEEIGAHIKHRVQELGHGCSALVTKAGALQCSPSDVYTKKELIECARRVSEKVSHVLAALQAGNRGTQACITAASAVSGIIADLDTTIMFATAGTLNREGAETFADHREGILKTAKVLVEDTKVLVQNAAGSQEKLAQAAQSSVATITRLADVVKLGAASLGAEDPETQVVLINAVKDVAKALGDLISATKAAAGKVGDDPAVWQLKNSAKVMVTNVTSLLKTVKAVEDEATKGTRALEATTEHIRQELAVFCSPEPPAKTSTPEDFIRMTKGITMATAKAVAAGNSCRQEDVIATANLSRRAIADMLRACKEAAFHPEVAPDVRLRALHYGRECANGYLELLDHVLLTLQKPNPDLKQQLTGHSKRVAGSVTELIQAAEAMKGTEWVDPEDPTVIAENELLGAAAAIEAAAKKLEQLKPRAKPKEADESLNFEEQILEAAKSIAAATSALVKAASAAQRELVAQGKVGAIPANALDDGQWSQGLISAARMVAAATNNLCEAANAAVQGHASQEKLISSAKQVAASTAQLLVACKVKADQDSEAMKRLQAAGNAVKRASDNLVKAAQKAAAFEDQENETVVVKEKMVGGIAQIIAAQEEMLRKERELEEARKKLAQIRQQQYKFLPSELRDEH

- stoichiometry N [1]: 4 Vd1 per R2R3
Molecule: talin R2R3 double domain fragment (domain or fragment)

Molecule: B1
- Kd [2]: 2000 nM
- stoichiometry N [3]: 1

- Kd [4]: 800 nM
- dH [4]: -5.9 kcal
Molecule: GEMVRQARILAQATSDLVNAIKADA (peptide, UniProt P26039 820-844, looked up) [talin VBS (residues 820–844) in talin R3]

- binding result [5]: binds
- binding result [6]: binds
Molecule: EDIDQMFSTLLGEMDLLTQSLGVDT [RIAM wild type peptide (6-30), TBS1]

Molecule: B2
- binding result [7]: binds

Molecule: B3
- binding result [8]: binds

- Kd [9]: 36 µM
- dH [4]: -1.5 kcal
Molecule: MGESNEDIDQMFSTLLGEMDLLTQSLGVDTLP (peptide, UniProt Q8R5A3 1-32, looked up) [RIAM(1–32) (TBS1)]
